Molecular target: the molecule itself
Assay: cross-linking

B1: C-TSK-Myc-His expressed in Xenopus embryos (natural protein, chick, UniProt Q65Z91 20-369, looked up)
chain: KTCFPGCHCEVESFGLFDSFSLTKVDCSGIGSHIVPVPIPLDTSYLDLSSNKLETINESMLTGPGYTTLVSLDLSYNNIAKISSTTFSRLRYLESLDLSHNSLEVLPEDCFSSSPLGDIDLSNNKLLDIALDVFASKGQGKPLNVDLSNNMLSKITRNHEKSIPNIQNLNLSGNRLTSVPNLQGIPLRYLNLDGNPLAKIEKGDFKGLKGLIHLSLSGLHDFRELSPYSFKELPALQVLDLSNNPNLRSLTAEVIFGLNSIQELNLSGTGVSSLPKTVLKYLPSLKSITLRKNIQCFKTIKEGQYHRQIGLTKLGLGAEELLWCKTPCPRPVCRCRDKPLQSAPQNLPTP
stoichiometry N: 2

Reference: PMC3793302 (Developmental cell, 2004)
